Here are results for three molecules from PMC6910952 (Nature Communications, 2019).

Where a chain is given by its changes, count along the chain named. Values joined by “and” are separate entries in the source; they are usually repeats but may differ in a detail not shown here. Equal values may be shown once.

What all share (conditions): both partners purified
Assay [1] concerns the target T1, yNpl4^113–580 (E123A K124A E125A) (Saccharomyces cerevisiae, UniProt P33755 113-580, E123A | K124A | E125A).
T1 construct: not shown: GST, N-terminal, cleaved
T1 sequence (looked up): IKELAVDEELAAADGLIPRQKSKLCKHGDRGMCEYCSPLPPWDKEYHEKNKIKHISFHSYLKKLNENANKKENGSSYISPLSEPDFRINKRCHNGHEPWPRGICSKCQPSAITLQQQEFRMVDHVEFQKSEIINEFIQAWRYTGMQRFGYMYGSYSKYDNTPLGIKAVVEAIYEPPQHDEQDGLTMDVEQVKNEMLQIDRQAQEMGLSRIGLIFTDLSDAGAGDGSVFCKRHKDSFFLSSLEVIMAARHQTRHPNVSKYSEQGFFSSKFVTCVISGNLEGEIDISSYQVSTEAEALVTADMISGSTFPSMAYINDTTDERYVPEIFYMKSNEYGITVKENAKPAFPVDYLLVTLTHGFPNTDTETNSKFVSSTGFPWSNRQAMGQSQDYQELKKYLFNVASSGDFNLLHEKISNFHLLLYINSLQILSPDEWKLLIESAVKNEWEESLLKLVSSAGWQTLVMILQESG
As to the kind of experiment: crystal structure; yNpl4^113–580 (E123A K124A E125A)–yUfd1^288–305 complex; sitting drop, 20 °C, 90 mM Bis-Tris-HCl pH 7.5, 19% PEG3350, 10 mM ATP.

In the next assay the target is T2, M1-Ub2 (UniProt P0CG48 1-76; P0CG48 1-76).
T2 construct: ubiquitin (Ub), first unit; ubiquitin (Ub), second unit
As to the kind of experiment: SPR; Biacore T200, 25 °C; wild-type or mutant His6-yNpl4^113–580, yUfd1–His6-yNpl4^113–580 or His6-hNpl4 immobilized on a CM5 chip by amine coupling; Ub2 or Ub4 in two-fold dilution series injected 60 s at 10 μL per min in 10 mM HEPES-NaOH pH 7.5, 150 mM NaCl, 0.05% Tween-20, 0.5 g/L BSA; equilibrium Kd. (In general: SPR reads the build-up and loss of mass on a sensor chip optically.)

Another assay addresses T3, M1-Ub4 (UniProt P0CG48 1-76; P0CG48 1-76; P0CG48 1-76; P0CG48 1-76).
T3 construct: ubiquitin (Ub), first unit; ubiquitin (Ub), second unit; ubiquitin (Ub), third unit; ubiquitin (Ub), fourth unit
Described as above.

The target in assay [2] is T4, Cdc48 (recombinant, hexameric) (Saccharomyces cerevisiae, UniProt P25694 1-835).
T4 construct: Cdc48 AAA-family ATPase of Saccharomyces cerevisiae; source: E. coli Rosetta (DE3) (pET21a), purified (TALON resin, Superose 6)
The assay is described as follows: pull-down; GST-yUfd1 (0.5 μM) on Glutathione Sepharose 4B beads with His6-tagged Npl4 (wild type or mutant), Cdc48 and K48 chains; same binding buffer (Supplementary Fig. 3b).

T4 sequence (P25694 whole entry): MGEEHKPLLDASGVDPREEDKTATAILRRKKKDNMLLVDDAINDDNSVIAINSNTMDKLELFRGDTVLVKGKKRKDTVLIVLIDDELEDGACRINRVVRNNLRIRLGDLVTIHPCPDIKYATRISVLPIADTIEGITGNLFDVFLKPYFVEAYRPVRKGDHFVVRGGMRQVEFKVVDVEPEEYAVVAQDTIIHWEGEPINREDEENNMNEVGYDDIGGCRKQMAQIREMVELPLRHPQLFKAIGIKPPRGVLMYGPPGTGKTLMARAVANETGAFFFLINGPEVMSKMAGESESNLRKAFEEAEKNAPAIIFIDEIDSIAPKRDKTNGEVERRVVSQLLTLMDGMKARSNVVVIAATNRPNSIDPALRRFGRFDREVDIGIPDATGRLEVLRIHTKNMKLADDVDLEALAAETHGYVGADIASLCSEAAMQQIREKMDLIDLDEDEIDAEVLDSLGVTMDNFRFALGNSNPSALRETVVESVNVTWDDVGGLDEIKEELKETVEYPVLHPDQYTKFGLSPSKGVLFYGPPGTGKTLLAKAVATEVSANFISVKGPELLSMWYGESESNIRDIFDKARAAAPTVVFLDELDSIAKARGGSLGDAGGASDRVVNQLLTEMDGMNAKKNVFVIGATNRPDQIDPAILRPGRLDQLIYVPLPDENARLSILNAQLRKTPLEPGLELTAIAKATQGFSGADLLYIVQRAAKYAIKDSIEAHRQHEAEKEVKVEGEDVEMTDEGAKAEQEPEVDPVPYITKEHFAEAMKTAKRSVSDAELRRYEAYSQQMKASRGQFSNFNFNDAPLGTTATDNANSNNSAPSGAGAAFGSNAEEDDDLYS

B1: yUfd1^288–305 (peptide, UniProt P53044 288-305, looked up)
chain: EPAKLDLPEGQLFFGFPM
notes: also called yUfd1 NBM; not shown: GST, N-terminal, cleaved
B1: the binding result in assay [1] is “binds”.

B2: His6-yNpl4^113–580 (domain or fragment, Saccharomyces cerevisiae, UniProt P33755 113-580, looked up)
chain: T1 sequence (looked up) with A11E, A12K, A13E
notes: codon-optimized synthetic cDNA; also called WT; WT #1; source: E. coli Rosetta (DE3), purified (Ni-NTA, Resource Q); also in lysate, mixed with cells expressing GST-yUfd1 for co-purification; not shown: His6, N-terminal, kept
Regarding B2, the dissociation constant Kd with M1-Ub2 is 333 µM and 420 µM; with M1-Ub4, 139 µM and 103 µM.

B3: GST-yUfd1 (full length) (natural protein, Saccharomyces cerevisiae, UniProt P53044 1-361, looked up)
chain: MFSGFSSFGGGNGFVNMPQTFEEFFRCYPIAMMNDRIRKDDANFGGKIFLPPSALSKLSMLNIRYPMLFKLTANETGRVTHGGVLEFIAEEGRVYLPQWMMETLGIQPGSLLQISSTDVPLGQFVKLEPQSVDFLDISDPKAVLENVLRNFSTLTVDDVIEISYNGKTFKIKILEVKPESSSKSICVIETDLVTDFAPPVGYVEPDYKALKAQQDKEKKNSFGKGQVLDPSVLGQGSMSTRIDYAGIANSSRNKLSKFVGQGQNISGKAPKAEPKQDIKDMKITFDGEPAKLDLPEGQLFFGFPMVLPKEDEESAAGSKSSEQNFQGQGISLRKSNKRKTKSDHDSSKSKAPKSPEVIEID
notes: Ufd1 of Saccharomyces cerevisiae (yUfd1), full length; also called GST-Ufd1; source: E. coli Rosetta (DE3) (pGEX-6P1), purified (Glutathione Sepharose FF, Resource Q); not shown: GST, N-terminal, kept
As for B3, the binding result in assay [2] was “binds”.

Usually Kd stands for the free concentration of one partner at which half of the binding sites on the other are occupied at equilibrium, for simple one-to-one binding. High values mean weaker binding, low ones tighter binding.
